Data from patent publication US20110217237A1 (AbbVie / Abbott, published 2011).
Where two headings read alike, the source gives them in different places.

Columns and labels:
[1] = biological target: T1, human DLL4, full length, on cells (human, UniProt Q9NR61 27-685); experiment: FACS, DLL4 cells
T1 construct: also called huDLL4 cells; human DLL4-293G

[2] = biological target: T1, human DLL4, full length, on cells; experiment: competition FACS: huNotch-1 to DLL4 cells
Protocol: Notch blocking assay: Briefly, stable cell lines overexpressing cell-surface DLL4 were harvested from tissue culture flasks and re-suspended in phosphate buffered saline (PBS) containing 1% bovine serum albumin and 1 mM CaCl₂ (FACS buffer). HEK293G-DLL4 cells were dispensed into 96-well plate (v-bottom) at 1.5×10⁵ cells/well in FACS buffer. After spinning down cells and discarding the supernatant, 50 μL of purified IgG with appropriate dilution were added to each well, and incubated on ice at 4° C. for 60 minutes, followed by addition of 50 μL/well of Notch1-biotin at 0.2 μg/mL for human DLL4-293G or 2.0 μg/mL for mouse DLL4-293G (1.0 or 0.1 μg/mL final) for an additional 1 hour incubation ice at 4° C. After washing the cells two times with FACS buffer, 50 μL of R-phycoerythrin-conjugated streptavidin (1:150 dilution in FACS buffer) (Jackson ImmunoResearch, West Grove, Pa., Cat.#016-110-084) were added. Following an incubation on ice (4° C., 60 minutes), cells were washed three times and resuspended in FACS buffer. Fluorescence was measured using a Becton Dickinson FACSCalibur-HTS (Becton Dickinson, San Jose, Calif.). Data were analyzed using Graphpad Prism software, and IC₅₀ values were reported as the concentration of antibody to achieve 50% reduction of Notch1 bound to DLL4 expressing cells.

mouse DLL4 on cells [3] = biological target: T2, mouse DLL4 on cells (mouse, UniProt Q9JI71 27-686); experiment: FACS, DLL4 cells
T2 construct: whole, on cells; also called mouse DLL4-293G; mu DLL4 cells
T2 sequence (Q9JI71 27-686): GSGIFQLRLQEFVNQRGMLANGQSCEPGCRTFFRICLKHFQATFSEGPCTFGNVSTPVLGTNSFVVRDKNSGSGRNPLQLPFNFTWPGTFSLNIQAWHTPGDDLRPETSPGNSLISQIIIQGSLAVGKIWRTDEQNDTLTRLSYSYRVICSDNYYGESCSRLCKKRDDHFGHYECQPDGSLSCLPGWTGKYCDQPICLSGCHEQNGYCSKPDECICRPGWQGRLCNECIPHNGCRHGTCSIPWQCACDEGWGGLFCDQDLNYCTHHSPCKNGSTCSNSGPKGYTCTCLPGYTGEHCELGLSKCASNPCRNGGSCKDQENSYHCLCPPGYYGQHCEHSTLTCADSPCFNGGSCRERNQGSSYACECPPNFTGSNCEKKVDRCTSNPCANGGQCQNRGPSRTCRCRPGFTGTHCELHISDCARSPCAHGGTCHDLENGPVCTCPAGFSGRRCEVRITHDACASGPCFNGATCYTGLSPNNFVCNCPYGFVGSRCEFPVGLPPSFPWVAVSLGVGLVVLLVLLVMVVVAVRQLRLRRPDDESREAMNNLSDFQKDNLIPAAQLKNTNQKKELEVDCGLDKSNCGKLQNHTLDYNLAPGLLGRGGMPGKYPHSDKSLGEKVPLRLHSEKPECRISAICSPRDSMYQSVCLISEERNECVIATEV

[4] = biological target: T1, human DLL4, full length, on cells; experiment: cell-based or functional assay
mouse DLL4 on cells [5] = biological target: T2, mouse DLL4 on cells; experiment: FACS, DLL4 cells; remark: listed apart in the source
[6] = biological target: T1, human DLL4, full length, on cells; experiment: FACS, DLL4 cells; remark: listed apart in the source
[7] = biological target: T3, mouse DLL4 extracellular domain (mouse, UniProt Q9JI71 27-532); experiment: SPR (Biacore)
T3 construct: extracellular domain; also called muDLL4 ECD; murine DLL4
T3 sequence (Q9JI71 27-532): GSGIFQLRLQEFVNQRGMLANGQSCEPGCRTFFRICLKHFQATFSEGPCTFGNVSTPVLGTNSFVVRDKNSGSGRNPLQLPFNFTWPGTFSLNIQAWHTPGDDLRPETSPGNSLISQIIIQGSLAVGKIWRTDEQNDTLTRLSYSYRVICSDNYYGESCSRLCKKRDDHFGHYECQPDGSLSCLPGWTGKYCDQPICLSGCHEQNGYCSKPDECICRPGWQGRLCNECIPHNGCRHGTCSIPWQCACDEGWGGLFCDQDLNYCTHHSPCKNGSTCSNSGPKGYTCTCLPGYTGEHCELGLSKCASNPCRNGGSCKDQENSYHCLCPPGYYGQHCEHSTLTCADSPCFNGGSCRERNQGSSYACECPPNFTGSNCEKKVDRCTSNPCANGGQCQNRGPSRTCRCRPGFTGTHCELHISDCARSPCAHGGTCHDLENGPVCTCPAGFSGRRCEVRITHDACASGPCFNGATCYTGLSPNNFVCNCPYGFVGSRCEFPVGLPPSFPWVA
Protocol: (§1) The BIACORE® surface plasmon resonance assay (Biacore, Inc., Piscataway, N.J., US) determines the affinity of antibodies with kinetic measurements of on-rate and off-rate constants. Binding of DLL4 antibodies to a purified recombinant DLL4 extracellular domain (ECD) was determined by surface plasmon resonance-based measurements with a Biacore® instrument (either a Biacore 2000, Biacore 3000, or Biacore T100; GE Healthcare, Piscataway, N.J., US) using running buffer HBS-EPB (10 mM HEPES [pH 7.4], 150 mM NaCl, 3 mM EDTA, 0.1 mg/ml BSA and 0.005% surfactant P20) at 25° C. For example, approximately 9000 RU of goat anti-human Fc specific polyclonal antibody (Thermo Fisher Scientific Inc., Rockford, Ill., US) diluted in 10 mM sodium acetate (pH 4.5) is directly immobilized across a CMS research grade biosensor chip using a standard amine coupling kit according to manufacturer's instructions and procedures at 25 μg/ml. Unreacted moieties on the biosensor surface were blocked with ethanolamine. For kinetic analysis, rate equations derived from the 1:1 Langmuir binding model were fitted simultaneously to multiple antigen injections (using global fit analysis) with the use of Scrubber 2 (BioLogic Software), Biacore Biaevaluation 4.0.1 software or Biacore T100 Evaluation software. Purified antibodies were diluted in running buffer for capture across goat anti-human Fc reaction surfaces. Antibodies to be captured as a ligand (1 μg/ml) were injected over reaction matrices at a flow rate of 10 μl/min. During the assay, all measurements were referenced against the capture surface alone (i.e., with no captured anti-DLL4 antibody). […] The equilibrium dissociation constant KD (M) of the reaction between antibodies and the target antigen was then calculated from the kinetic rate constants by the following formula: KD=Koff/Kₒₙ. Binding was recorded as a function of time and kinetic rate constants were calculated.

[8] = biological target: T4, human DLL4 extracellular domain (human, UniProt Q9NR61 27-529); experiment: SPR (Biacore)
T4 construct: purified recombinant ECD; biotin-labelled or 6xHis-tagged depending on the assay; also called huDLL4 ECD; hu DLL4 ECD
T4 sequence (Q9NR61 27-529 limits assumed): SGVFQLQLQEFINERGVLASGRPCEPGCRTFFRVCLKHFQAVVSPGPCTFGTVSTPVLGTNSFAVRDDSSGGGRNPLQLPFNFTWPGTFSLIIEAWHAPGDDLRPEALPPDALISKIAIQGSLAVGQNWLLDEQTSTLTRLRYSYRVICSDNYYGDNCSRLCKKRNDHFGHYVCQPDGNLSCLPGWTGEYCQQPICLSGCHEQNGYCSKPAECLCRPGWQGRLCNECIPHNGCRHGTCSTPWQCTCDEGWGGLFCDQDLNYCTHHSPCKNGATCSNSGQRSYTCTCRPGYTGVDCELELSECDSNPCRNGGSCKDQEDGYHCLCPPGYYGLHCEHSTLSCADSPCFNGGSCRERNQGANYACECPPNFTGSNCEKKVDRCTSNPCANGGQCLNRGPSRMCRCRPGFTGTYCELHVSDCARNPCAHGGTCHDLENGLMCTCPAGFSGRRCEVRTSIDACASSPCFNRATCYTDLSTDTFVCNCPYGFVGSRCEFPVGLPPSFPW
Protocol: as §1

[9] = biological target: T5, rat DLL4 extracellular domain (rat, UniProt D3ZHH1 28-530); experiment: SPR (Biacore)
T5 construct: extracellular domain; also called ratDLL4 ECD
T5 sequence (D3ZHH1 28-530): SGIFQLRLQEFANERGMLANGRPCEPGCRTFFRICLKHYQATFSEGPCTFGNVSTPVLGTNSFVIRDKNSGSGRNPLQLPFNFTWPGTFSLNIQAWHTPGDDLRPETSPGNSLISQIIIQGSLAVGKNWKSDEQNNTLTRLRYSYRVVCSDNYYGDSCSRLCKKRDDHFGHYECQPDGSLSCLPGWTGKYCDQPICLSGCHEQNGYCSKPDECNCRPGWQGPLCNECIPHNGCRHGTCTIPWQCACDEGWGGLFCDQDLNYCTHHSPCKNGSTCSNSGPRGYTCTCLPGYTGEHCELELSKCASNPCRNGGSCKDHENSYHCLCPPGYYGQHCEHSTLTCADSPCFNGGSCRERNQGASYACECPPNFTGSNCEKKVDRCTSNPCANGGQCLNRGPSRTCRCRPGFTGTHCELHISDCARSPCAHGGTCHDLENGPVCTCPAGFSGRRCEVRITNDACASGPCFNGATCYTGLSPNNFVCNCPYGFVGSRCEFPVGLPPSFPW
Procedure, shortened: (§2)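 Purified anti-DLL4 antibodies (1 μg/ml) captured on immobilized goat anti-human Fc, with DLL4 ECD injected as analyte; HBS-EPB running buffer (pH 7.4), 25° C, referenced against capture-only surface. On/off rates from global 1:1 Langmuir fit; KD = Koff/Kon.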

[10] = biological target: T3, mouse DLL4 extracellular domain; experiment: SPR (Biacore); remark: listed apart in the source
Procedure, shortened: as §2

[11] = biological target: T6, cynomolgus monkey DLL4 extracellular domain (cynomolgus monkey); experiment: SPR (Biacore)
T6 construct: extracellular domain; also called cynoDLL4 ECD; Cyno DLL4
Procedure, shortened: as §2

[12] = biological target: T4, human DLL4 extracellular domain; experiment: SPR (Biacore); remark: listed apart in the source
Procedure, shortened: as §2

[13] = biological target: T6, cynomolgus monkey DLL4 extracellular …; experiment: binding ELISA
Protocol: (§3) Plates were then washed 3 times. 100 μl/well of recombinant rat/human chimeric or recombinant human anti-DLL4 antibodies were then added to the plate (0.00164-27 nM, 4-fold serial dilution in ELISA buffer=PBST, 10% Superblock (Pierce #37515)) for 1 hour at 25° C. with shaking and then washed again 3 times. Plates were incubated with goat anti-human HRP (Pierce #31412) (1:40,000 dilution in ELISA buffer, 100 μl/well) for 1 hour at 25° C. with shaking, then washed 3 times. After the final wash, plates were incubated with 100 μl/well ELISA substrate (Sigma #T8665). The reaction was stopped after 8 minutes at 25° C. with 100 μl/well 1N HCl and the absorbance was read at 450 nm. Data were analyzed using Graphpad Prism software, and EC50 values were reported.
(§4) Purified variants were further characterized for their affinities for human, murine and cynomolgus DLL4 by binding ELISA (Example 1.2, Method 2), by Biacore (Example 1.1), and by Flow Cytometry (FACS). […] The humanized variants were then tested for their functionality with human and murine DLL4 by competition ELISA (Example 1.3) and by Notch reporter assay (Example 1.6).

[14] = biological target: T3, mouse DLL4 extracellular domain; experiment: binding ELISA
Protocol: as §3, §4

[15] = biological target: T4, human DLL4 extracellular domain; experiment: binding ELISA
Protocol: as §3, §4

[16] = biological target: T3, mouse DLL4 extracellular domain; experiment: competition ELISA vs Notch-1
Protocol: (§5) Plates were then washed 3 times with wash buffer (PBS, 0.05% Tween-20) and blocked with 200 μl/well blocking buffer (D-PBS, 1% BSA, 1 mM CaCl₂, 0.05% Tween-20) for 1 hour at 25° C. While blocking, biotin labeled DLL4 extracellular domain (14 nM) was mixed with antibody (30 pM-66 nM, 3-fold serial dilution in blocking buffer) for 1 hour at 25° C. with shaking. Assay plates were washed after blocking, and incubated with DLL4/antibody mixtures (100 μl/well, 1 hour at 25° C. with shaking). Plates were washed again and 100 μl/well streptavidin conjugated with HRP (Fitzgerald #65R-S104PHRPx, diluted 1:5,000 in blocking buffer) was added for 1 hour at 25° C. with shaking. After a final wash, plates were developed using 100 μl/well substrate (TMB Sigma #T8665), and the reaction was stopped using 100 μl/well 1N HCl, and the absorbance was read at 450 nm. Data were analyzed using Graphpad Prism software and IC₅₀ values were reported as the concentration of antibody to achieve 50% reduction of DLL4 bound to Notch1.
as §4

[17] = biological target: T4, human DLL4 extracellular domain; experiment: competition ELISA vs Notch-1
Protocol: as §5, §4

T1 sequence (Q9NR61 27-685 limits assumed): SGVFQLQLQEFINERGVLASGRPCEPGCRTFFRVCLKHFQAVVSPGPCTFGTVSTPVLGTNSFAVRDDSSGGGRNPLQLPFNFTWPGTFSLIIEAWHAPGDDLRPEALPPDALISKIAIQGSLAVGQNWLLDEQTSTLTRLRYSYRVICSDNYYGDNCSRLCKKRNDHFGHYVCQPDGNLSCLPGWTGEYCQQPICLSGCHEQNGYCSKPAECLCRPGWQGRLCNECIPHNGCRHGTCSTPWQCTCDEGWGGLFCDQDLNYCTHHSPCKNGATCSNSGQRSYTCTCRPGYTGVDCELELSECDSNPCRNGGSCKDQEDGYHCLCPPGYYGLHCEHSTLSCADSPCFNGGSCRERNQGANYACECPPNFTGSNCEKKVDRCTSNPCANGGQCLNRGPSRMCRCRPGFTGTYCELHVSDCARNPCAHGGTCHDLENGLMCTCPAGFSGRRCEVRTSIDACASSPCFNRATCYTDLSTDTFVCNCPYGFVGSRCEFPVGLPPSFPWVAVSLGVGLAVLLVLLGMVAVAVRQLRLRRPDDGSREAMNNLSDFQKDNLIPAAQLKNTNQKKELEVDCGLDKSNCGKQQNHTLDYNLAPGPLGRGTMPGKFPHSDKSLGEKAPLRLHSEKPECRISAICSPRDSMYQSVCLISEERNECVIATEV

Binder	EC50 [1] [nM]	Reporter Assay (EC50, nM) [4] [nM]	EC50 (mouse DLL4 on cells [5]) [nM]	EC50 [6] [nM]	Kd [7] [nM]	Kd [8] [nM]	EC50 [13] [nM]	EC50 [14] [nM]	EC50 [15] [nM]	IC50 [16] [nM]	IC50 [17] [nM]	further results
38H12 chimeric antibody (antibody, human IgG1, V domains shown, also called Chimera of 38H12) VH: EVQLVESGGGLVQPGRSLKLSCAASGFTFSNYGMYWIRQAPTKGLQWVAFISHGGGITYYRDSVKGRFTISRDNAKSTLYLQMDSLRSEDTATYHCAALNWELGIDYWGQGVMVTVSS VL: DIQMTQSPASLSASLGETISIECRASEDIYSNLAWYQKKSGKSPQLLIYAANRLQDGVPSRFSGSGSGTQYSLKISGMQPEDEGDYFCLQGSKFPLTFGSGTKLEIKR	1.47	–	–	–	–	–	–	–	–	–	–	IC50 [2]: 1.44 nM
32C7 chimeric antibody (antibody, human IgG1, V domains shown, also called Chimera of 32C7) VH: EVQLVESGGGLVQPGRSLKLSCLASGFPFSSVWMTWIRQAPGKGLEWIATITNSGASTYYSASVKGRFTISRDNVKSTLYLQMTSLGSEDTATYYCTRVGTSFDYWGQGVMVTVSS VL: DIQMTQSPASLSASLGETVTIECRASDDIYNGLAWFQQKPGKSPQLLIYDANTLHTGVPSRFSGSGSGTQFSLKINSLQSEDVASYFCQQFYDYPPYTFGAGTKLELKR	3.71	–	–	–	–	–	–	–	–	–	–	EC50 (mouse DLL4 on cells [3]): 4.11 nM
14G1 chimeric antibody (antibody, human IgG1, V domains shown, also called Chimera of 14G1) VH: EVQLQQSGAELAKPGSSVKISCKASGYTFTNYDISWIKQTNGQGLEYLGYINTGSGGIYSNEKFKGKATLTVDKSSNTAFMQLSSLTPEDTAVYYCVREGNNFDHWGQGVKVTVSS VL: DTVMTQSPASMSTSVGERVTVNCKASQSVGTIVAWFQQKPGQSPKRLIYLATYRHTGVPDRFIGSGFGRDFTLTISNVEAEDLAVYYCLQYGSRPFTFGAGTKLEIKR	0.994	–	–	–	–	–	–	–	–	–	–	IC50 [2]: 4.11 nM

Continued, in another order:

EC50 [1] [nM]	Reporter Assay (EC50, nM) [4] [nM]	EC50 (mouse DLL4 on cells [5]) [nM]	EC50 [6] [nM]	Kd [7] [nM]	Kd [8] [nM]	EC50 [13] [nM]	EC50 [14] [nM]	EC50 [15] [nM]	IC50 [16] [nM]	IC50 [17] [nM]	Binder	further results
–	2.53	0.21	3.13	38	15	0.13	0.09	0.08	1.3	0.4	h1A11.1 (antibody, V domains shown, humanized IgG; also called hu1A11.1; VH.1/VL.1 1A11) VH: EVQLVESGGGLVQPGGSLRLSCAASGFTFSNFPMAWVRQAPGKGLEWVATISSSDGTTYYRDSVKGRFTISRDNAKNSLYLQMNSLRAEDTAVYYCARGYYNSPFAYWGQGTLVTVSS VL: DIQMTQSPSSLSASVGDRVTITCRASEDIYSNLAWYQQKPGKAPKLLIYDTNNLADGVPSRFSGSGSGTDFTLTISSLQPEDFATYYCQQYNNYPPTFGQGTKLEIKR	binding result [9]: no binding; Kd [10]: 32 nM; koff [10]: 0.00498 s⁻¹; kon [10]: 156000 M⁻¹ s⁻¹; Kd [11]: 18 nM; koff [11]: 0.00255 s⁻¹; kon [11]: 144000 M⁻¹ s⁻¹; Kd [12]: 13 nM; koff [12]: 0.00212 s⁻¹; kon [12]: 158000 M⁻¹ s⁻¹
–	2.53	0.24	3.51	37	15	0.16	0.08	0.07	0.9	0.2	h1A11.3 (antibody, V domains shown, humanized IgG; also called VH.1/VL.1b 1A11) VH: EVQLVESGGGLVQPGGSLRLSCAASGFTFSNFPMAWVRQAPGKGLEWVATISSSDGTTYYRDSVKGRFTISRDNAKNSLYLQMNSLRAEDTAVYYCARGYYNSPFAYWGQGTLVTVSS VL: DIQMTQSPSSLSASVGDRVTITCRASEDIYSNLAWYQQKPGKAPKLLIFDTNNLADGVPSRFSGSGSGTDFTLTISSLQPEDFATYYCQQYNNYPPTFGQGTKLEIKR	–
–	4.24	0.18	3.34	24	11	0.17	0.09	0.06	0.9	0.35	h1A11.8 (antibody, V domains shown, humanized IgG; also called VH.1a/VL.2a 1A11) VH: EVQLVESGGGLVQPGGSLRLSCAASGFTFSNFPMAWVRQAPGKGLEWVATISSSDGTTYYRDSVKGRFTISRDNAKSSLYLQMNSLRAEDTAVYYCSRGYYNSPFAYWGQGTLVTVSS VL: EIVMTQSPATLSVSPGERATLSCRASEDIYSNLAWYQQKPGQSPRLLIFDTNNLADGVPARFSGSGSGTESTLTISSLQSEDFAVYFCQQYNNYPPTFGQGTKLEIKR	–
–	3.28	0.22	3.61	39	16	0.17	0.09	0.08	0.9	0.3	h1A11.4 (antibody, V domains shown, humanized IgG; also called VH.1/VL.2a 1A11) VH: EVQLVESGGGLVQPGGSLRLSCAASGFTFSNFPMAWVRQAPGKGLEWVATISSSDGTTYYRDSVKGRFTISRDNAKNSLYLQMNSLRAEDTAVYYCARGYYNSPFAYWGQGTLVTVSS VL: EIVMTQSPATLSVSPGERATLSCRASEDIYSNLAWYQQKPGQSPRLLIFDTNNLADGVPARFSGSGSGTESTLTISSLQSEDFAVYFCQQYNNYPPTFGQGTKLEIKR	–
